Source: publication PMC8420271 (The EMBO Journal, 2021)

Target: His-tagged SARS-CoV-2 nucleocapsid (SARS-CoV-2, UniProt P0DTC9 1-419)
Experiment: pull-down

B1: GST-GSDMD mutant lacking amino acids 265-284 (natural protein)
chain: MGSAFERVVRRVVQELDHGGEFIPVTSLQSSTGFQPYCLVVRKPSSSWFWKPRYKCVNLSIKDILEPDAAEPDVQRGRSFHFYDAMDGQIQGSVELAAPGQAKIAGGAAVSDSSSTSMNVYSLSVDPNTWQTLLHERHLRQPEHKVLQQLRSRGDNVYVVTEVLQTQKEVEVTRTHKREGSGRFSLPGATCLQGEGQGHLSQKKTVTIPSGSTLAFRVAQLVIDSDLDVLLFPDKKQRTFQPPATGHKRSTSEGAWPQLPSGLSEDFQGLRAEVETISKELELLDRELCQLLLEGLEGVLRDQLALRALEEALEQGQSLGPVEPLDGPAGAVLECLVLSSGMLVPELAIPVVYLLGALTMLSETQHKLLAEALESQTLLGPLELVGSLLEQSAPWQERSTMSLPPGLLGNSWGEGAPAWVLLDECGLELGEDTPHVCWEPQAQGRMCALYASLALLSGLSQEPH
B1: binds.
